From article doi:10.1101/2020.06.03.132209 (bioRxiv, 2020) come the findings set out here.

This experiment concerns the target T1, Dehydrodolichyl diphosphate synthase (DHDDS), full length (1-333), untagged (human, UniProt Q86SQ9-1 1-333).
T1 sequence: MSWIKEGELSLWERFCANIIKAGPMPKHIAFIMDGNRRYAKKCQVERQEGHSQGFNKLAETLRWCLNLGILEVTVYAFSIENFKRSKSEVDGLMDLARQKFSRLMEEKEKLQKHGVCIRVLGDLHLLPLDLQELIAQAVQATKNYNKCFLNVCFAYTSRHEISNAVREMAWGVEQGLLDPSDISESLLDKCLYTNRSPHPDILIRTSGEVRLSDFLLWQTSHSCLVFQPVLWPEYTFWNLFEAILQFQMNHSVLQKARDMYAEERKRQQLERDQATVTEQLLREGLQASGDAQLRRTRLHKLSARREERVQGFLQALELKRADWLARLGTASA
Description: crystal structure.

B1: NgBR^79-293 (Nogo-B receptor, N-terminal 78 amino acids deleted) (domain or fragment)
chain: AAAHHRMRWRADGRSLEKLPVHMGLVITEVEQEPSFSDIASLVVWCMAVGISYISVYDHQGIFKRNNSRLMDEILKQQQELLGLDCSKYSPEFANSNDKDDQVLNCHLAVKVLSPEDGKADIVRAAQDFCQLVAQKQKRPTDLDVDTLASLLSSNGCPDPDLVLKFGPVDSTLGFLPWHIRLTEIVSLPSHLNISYEDFFSALRQYAACEQRLGK
For the molecule B1, the binding result is “binds”.
